We go through 30 sequences from the supplement of paper PMC9170038.

The subject of this series is MS2 coat protein. Put plainly: apparent KD of MS2 coat protein; designed switch direction (-1 OFF switch, 1 ON switch): -1; higher = weaker reporter binding. The procedure, abridged:
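Designed RNA switches were transcribed on Illumina chips by stalled E. coli RNA polymerase and titrated with SNAP-549-labelled MS2 coat protein from 0.7 or 1.5 nM, doubling to 3 µM. Step length ran from 0.8–1.5 h at the lowest concentration to 10–20 min at the highest. The apparent KD is the median over clusters for each design, from curve-fitted normalised cluster fluorescence.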

The mark [1] stands for this setting: input ligand: microRNA oligo, concentration not stated.
[2] abbreviates: Eterna round: R95, input ligand: FMN 200 uM.
[3] abbreviates: Eterna round: R95, input ligand: microRNA oligo, concentration not stated.
Setting [4] is: Eterna round: R95, input ligand: none.

As for “AACUCACAUGAGGAUCACCCAUGUGAGGAUAUGUGAGUGUGUAUGUUAUUAUAUAUUUAUAGAAGGCGCGUGAU [JR_Exc1_Sub029] (Eterna round: R97, puzzle: Exclusion 1)”, the “apparent KD of MS2 coat protein” value runs as follows: (input ligand: FMN 200 uM) 24.5 nM; (input ligand: none) 23.1 nM.

As to “AACUCAUGUUCAGGAUAUCGCGUUCCAAAGACAUGAGAAGGGAACAUGAGGAUCACCCAUGUACCCGGUCUCAGACCGGGCUUC [Tiriaron] (Eterna round: R96, puzzle: Exclusion NG 1)”, the “apparent KD of MS2 coat protein” value was 115 nM (input ligand: FMN 200 uM), 41.8 nM under setting [1] and 64.1 nM (input ligand: none).

Take “AACUCUAAGCAGGAUAUCUAGCAAACGUCCGCAAGAGAAGGGCUUACAUGAGGAUCACCCAUGUAAGGAUGAUC [Reorzainar] (puzzle: Exclusion 6)”: the “apparent KD of MS2 coat protein” value runs as follows: under setting [2], 48.8 nM; under setting [3], 26 nM; under setting [4], 24.9 nM.

Consider “AACUGGACAGGAUAUGUUCUUGAGCACUUGAGGAUCACCCAAGUCAUCAAGAACUCAGGCACAGAAGGGUUUAUGC [salish99_ex5_r4_003] (Eterna round: R97, puzzle: Exclusion 5)”, for which the “apparent KD of MS2 coat protein” value is, setting by setting: (input ligand: FMN 200 uM) 19 nM; (input ligand: none) 13.4 nM.

With “AAGAAACAUGAGGAUCACCCAUGUGAGGAUAUGAAAAAGAAAAGAAAAGAAAGAAGGCUCAGAAGGCACAAAGG [salish99-ex1_r3_029] (puzzle: Exclusion 1)”, the “apparent KD of MS2 coat protein” value by setting is: under setting [2], 30.5 nM; under setting [3], 24.1 nM; under setting [4], 28.6 nM.

Consider “AAGAAACAUGAGGAUCACCCAUGUGAGGAUAUGAAAAAGAAAAGAAAAGAAAGAAGUUUCAGAAGGCACAAAGG [salish99-ex1_r3_024] (puzzle: Exclusion 1)”, for which the “apparent KD of MS2 coat protein” value was determined as 83.8 nM under setting [2], 41.2 nM under setting [3] and 44.9 nM under setting [4].

With “AAGAAACAUGAGGAUCACCCAUGUGAGGAUAUGACCCGCCCGGCGUAAGCAAAAUAAAUCAGAAGGCACAAAGG [salish99_ex1_r4_007] (Eterna round: R97, puzzle: Exclusion 1)”, the “apparent KD of MS2 coat protein” value reads like this: (input ligand: FMN 200 uM) 35.5 nM; (input ligand: none) 37.3 nM.

On to “AAGAAACAUGAGGAUCACCCAUGUGAGGAUAUGACUAAGAAAAGAAAAGAAAGAAGACUCAGAAGGCACAAAGG [salish99-ex1_r3_075] (puzzle: Exclusion 1)”, for which the “apparent KD of MS2 coat protein” value stood at 68.9 nM under setting [2], 54.5 nM under setting [3] and 46.8 nM under setting [4].

In the case of “AAGAAACAUGAGGAUCACCCAUGUGAGGAUAUGAUAAAGAAAAGAAAAGAAAGAAGAGUCAGAAGGCACAAAGG [salish99-ex1_r3_037] (puzzle: Exclusion 1)”, the “apparent KD of MS2 coat protein” value is, setting by setting: under setting [2], 71.6 nM; under setting [3], 35.8 nM; under setting [4], 47.4 nM.

“AAGAAACAUGAGGAUCACCCAUGUGAGGAUAUGGCCCGCCCGGCGUGAGCUGGUUUAAUCAGAAGGCACAAAGG [salish99_ex1_r4_014] (Eterna round: R97, puzzle: Exclusion 1)”: the “apparent KD of MS2 coat protein” value by setting is: (input ligand: FMN 200 uM) 44.8 nM; (input ligand: none) 38.1 nM.

As to “AAGAAACAUGAGGAUCACCCAUGUGAGGAUAUGUAAAAGAAAAUAAAAUAAAUAAUAAACAGAAGGCACAAAGG [Mat - Mod of Hog D18] (puzzle: Exclusion 1)”, the “apparent KD of MS2 coat protein” value was 58.2 nM under setting [2], 33.6 nM under setting [3] and 40.9 nM under setting [4].

On to “AAGAAACGAGGAUAUACAGUUGAGUGAGGGAUGUUAGUGUUACAUGAGGAUCACCCAUGUAGAAGGCGUGAGAG [JR_Exclu2_Sub091] (puzzle: Exclusion 2)”, for which the “apparent KD of MS2 coat protein” value is, setting by setting: under setting [2], 66.4 nM; under setting [3], 32.2 nM; under setting [4], 36.2 nM.

As for “AAGAAAGGUGACAUGGGUGACAUGAGGAUCACCCAUGUUACAAGCUUGUUGCUCGUCUUAUAAUUAACCCAUGUCAC [LRO Sensor-off var1-20 mod of Stov1-13-A1 by Brourd] (Eterna round: R97, puzzle: Sensor, turn-off variant 1)”, the “apparent KD of MS2 coat protein” value is, setting by setting: (input ligand: FMN 200 uM) 15.6 nM; (input ligand: none) 15.6 nM.

With “AAGAACGUGCAAGGAUAUCUCCACCAAACCGGCAGAGAAGGUGCACAUGAGGAUCACCCAUGUGACCUAAAGCUCUUAUGAGCC [Raledigeen] (Eterna round: R96, puzzle: Exclusion NG 1)”, the “apparent KD of MS2 coat protein” value reads like this: (input ligand: FMN 200 uM) 30.6 nM; under setting [1], 13.1 nM; (input ligand: none) 17.3 nM.

“AAGAACUGAGGAUAUGCAAAAGGGAAAGCUGAUCCUCAUCUACAUGAGGAUCACCCAUGUAGAAGGCGGGAAAU [Aveerve] (Eterna round: R96, puzzle: Exclusion 2)”: the “apparent KD of MS2 coat protein” value runs as follows: (input ligand: FMN 200 uM) 108 nM; under setting [1], 50.7 nM; (input ligand: none) 74 nM.

As to “AAGAAGAAGUAAGGAUAUGAAGAUUUGGUGAUGACAUGAGGAUCACCCAUGUGAAAACAAUAAGAUCAGAAGGUAUAAGAAGAA [AK ExNG2-2.2] (Eterna round: R96, puzzle: Exclusion NG 2)”, the “apparent KD of MS2 coat protein” value (input ligand: FMN 200 uM) came out at 104 nM, the “apparent KD of MS2 coat protein” value under setting [1] was 61.6 nM and the “apparent KD of MS2 coat protein” value (input ligand: none) amounted to 112 nM.

Consider “AAGAAGAUCAAAGGAUAUGGAGCUGAAACGGCGCUAGAAGGUUGUCUAGUGUAACAUGAGGAUCACCCAUGUAGGUACCUCUAA [AK ExNG1-V2-1.1] (Eterna round: R96, puzzle: Exclusion NG 1)”, for which the “apparent KD of MS2 coat protein” value (input ligand: FMN 200 uM) was found to be 730 nM, the “apparent KD of MS2 coat protein” value under setting [1] was found to be 376 nM and the “apparent KD of MS2 coat protein” value (input ligand: none) was found to be 847 nM.

With “AAGAAGCUGAGAGGAUAUGGAGCCGAAACGGAGCUAGAAGGCUUUGCAGAAAGACAUGAGGAUCACCCAUGUUCAUGUAGAGAA [AK ExNG1-1.3] (Eterna round: R96, puzzle: Exclusion NG 1)”, the “apparent KD of MS2 coat protein” value by setting is: (input ligand: FMN 200 uM) 15.2 nM; under setting [1], 12.6 nM; (input ligand: none) 18.4 nM.

Consider “AAGAAGUGAGGAUAUCACCCUGCGCUACAGUUGCGCAGGCAUGAGAAGGCACUUGAGGAUCACCCAAGUCCUAU [Bitiri] (Eterna round: R97, puzzle: Exclusion 4)”, for which the “apparent KD of MS2 coat protein” value is, setting by setting: (input ligand: FMN 200 uM) 212 nM; (input ligand: none) 23.6 nM.

As for “AAGAAGUGAGGAUAUGCAAAGAAAGAAAGAAAGAAAGAAAAGCAGAAGGCACAUGAGGAUCACCCAUGUAAAGA [Fourth Time] (puzzle: Exclusion 4)”, the “apparent KD of MS2 coat protein” value turned out to be 20.5 nM under setting [2], 16.5 nM under setting [3] and 15.6 nM under setting [4].

For “AAGAAUUACAUGAGGAUCACCCAUGUAGAGUGGGAAGAGAGAUAGGAUAUGAUGUGAGAAUCAUAUCAGAAGGAUCGAGACUCA [AK ExNG3-2] (Eterna round: R96, puzzle: Exclusion NG 3)”, the “apparent KD of MS2 coat protein” value reads like this: (input ligand: FMN 200 uM) 144 nM; under setting [1], 105 nM; (input ligand: none) 138 nM.

“AAGACACAUGAGGAUCACCCAUGUGAGGAUAUUCGAUGCUGAGCGUAAGCUUAGUAUCGGAGAAGGUACAUAGG [Salishxclusion 9 - Jieux - Exclusion 1] (Eterna round: R97, puzzle: Exclusion 1)”: the “apparent KD of MS2 coat protein” value by setting is: (input ligand: FMN 200 uM) 77.2 nM; (input ligand: none) 66.6 nM.

Regarding “AAGACACUUAGAGGAUAUGUGAAAGGAAGUGUAACAGAAGGCUAGGUGAGAACAUGAGGAUCACCCAUGUGAUCACAUGCCAAA [PowerStrip EXNG 1.27] (Eterna round: R96, puzzle: Exclusion NG 1)”, the “apparent KD of MS2 coat protein” value reads like this: (input ligand: FMN 200 uM) 20 nM; under setting [1], 11.9 nM; (input ligand: none) 12.1 nM.

Regarding “AAGAGCAGACGGAGAUCCAACAUGAGGAUCACCCAUGUCUCGCAAGCUUUUUGCUUGUCUUAUCCUCCUCUGUUCAC [Esquitian 4] (Eterna round: R97, puzzle: Sensor, turn-off variant 1)”, the “apparent KD of MS2 coat protein” value is, setting by setting: (input ligand: FMN 200 uM) 14.8 nM; (input ligand: none) 14.6 nM.

Turning to “AAGAGGUCAGGAUAUACGGAAAGAGAGAGAAGGUGAGGGUAACAUGAGGAUCACCCAUGUAGAAGGGACUAAGA [JR_Exclu2_Sub074] (puzzle: Exclusion 2)”, the “apparent KD of MS2 coat protein” value amounted to 54.5 nM under setting [2], 44.8 nM under setting [3] and 38.5 nM under setting [4].

Take “AAGAGUGCAGGAUAUACUUGGUAGGGUAAGAUGAGUGAGGGACAUGAGGAUCACCCAUGUAGAAGGGCAGAGAG [JR_Exclu2_Sub057] (puzzle: Exclusion 2)”: the “apparent KD of MS2 coat protein” value by setting is: under setting [2], 33.1 nM; under setting [3], 35.1 nM; under setting [4], 26.7 nM.

With “AAGAGUGCAGGAUAUACUUGUUAGGACGGUUGGAUGAUUUGACAUGAGGAUCACCCAUGUAGAAGGGCAGAGAG [JR_Exclu2_Sub052] (puzzle: Exclusion 2)”, under setting [3], the “apparent KD of MS2 coat protein” value amounted to 126 nM.

As to “AAGAGUGCAGGAUAUACUUGUUAGGACGGUUGGAUGGUUUGACAUGAGGAUCACCCAUGUAGAAGGGCAGAGAG [JR_Exclu2_Sub053] (puzzle: Exclusion 2)”, the “apparent KD of MS2 coat protein” value under setting [3] was 70.5 nM.

With “AAGAUGCGGAUAGGAUAUGGAAAAAAAAAAAGACCAGAAGGAUUGGUCAUAUAACAUGAGGAUCACCCAUGUAUAUGUUGUGAA [AK ExNG1-3] (Eterna round: R96, puzzle: Exclusion NG 1)”, the “apparent KD of MS2 coat protein” value reads like this: (input ligand: FMN 200 uM) 17.8 nM; under setting [1], 21.3 nM; (input ligand: none) 19.3 nM.

For the sequence “AAGAUGCGGAUAGGAUAUGGAAAAAAAAAAGGAUUAGAAGGGUUGGUUAAAAUACAUGAGGAUCACCCAUGUGAAUCAUGAGAA [AK ExNG1-2.2] (Eterna round: R96, puzzle: Exclusion NG 1)”, the “apparent KD of MS2 coat protein” value (input ligand: FMN 200 uM) was 392 nM, the “apparent KD of MS2 coat protein” value under setting [1] turned out to be 188 nM and the “apparent KD of MS2 coat protein” value (input ligand: none) was determined as 186 nM.
